Test results from publication PMC9954413.
pKd: −log10 of the molar value.

Assays:
[1] = biological target: Arkadia (RNF111) LONG, residues 876-994 (Ark LONG, 119 aa) (human) (UniProt Q6ZNA4)
[2] = biological target: Arkadia LONG R983K (human) (UniProt Q6ZNA4); assay: ITC; 1-3 mM E2 in the syringe injected (2 uL, 15-19 injections) into 100-300 uM Arkadia polypeptide in the cell; 25 °C; 50 mM KH2PO4, 50 mM K2HPO4 pH 7; single-site model
[3] = biological target: Arkadia LONG R983A (human) (UniProt Q6ZNA4); assay: as above
Sequence of Arkadia LONG R983A (human) (Q6ZNA4 876-994 R983A): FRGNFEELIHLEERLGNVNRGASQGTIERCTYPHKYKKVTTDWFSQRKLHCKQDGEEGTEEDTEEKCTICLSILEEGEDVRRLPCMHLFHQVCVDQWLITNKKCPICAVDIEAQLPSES

[4] = biological target: Arkadia (RNF111) LONG, residues 876-994 (Ark LONG, 119 aa) (human) (UniProt Q6ZNA4); assay: as above
UbcH5B (Homo sapiens) = UbcH5B (Homo sapiens) (UniProt P62837); assay: ITC; conditions: cited from earlier work
Sequence of UbcH5B (Homo sapiens) (P62837 whole entry): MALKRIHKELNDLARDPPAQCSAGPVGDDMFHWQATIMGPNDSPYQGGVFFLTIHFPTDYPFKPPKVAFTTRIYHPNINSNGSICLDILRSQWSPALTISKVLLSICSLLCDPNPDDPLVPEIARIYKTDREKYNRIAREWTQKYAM

Sequence of UbcH5B (UBE2D2) (P62837 whole entry): as above
Sequence of Arkadia (RNF111) LONG, residues 876-994 (Ark LONG, 119 aa) (human) (Q6ZNA4 876-994): as the sequence (Q6ZNA4 876-994 R983A) above, with A108R counted along it
Sequence of Arkadia LONG R983K (human) (Q6ZNA4 876-994 R983K): as the sequence (Q6ZNA4 876-994 R983A) above, with A108K counted along it
Sequence of Arkadia RING RING (Q6ZNA4 939-986): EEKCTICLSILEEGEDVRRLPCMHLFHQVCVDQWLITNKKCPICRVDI

| Substance | in vitro auto-ubiquitylation of Ark LONG: time until polyubiquitylation is achieved [1] [min] | dH [2] [kcal/mol] | stoichiometry N [2] | dH [3] [kcal/mol] | stoichiometry N [3] | dH [4] [kcal/mol] | stoichiometry N [4] | pKd (UbcH5B (Homo sapiens)) |
| --- | --- | --- | --- | --- | --- | --- | --- | --- |
| UbcH5B (UBE2D2) (from UniProt P62837 1-147) (enzyme) | 5 | -3.6 | 0.5 | -5.8 | 0.7 | -4.7 | 0.6 |  |
| Arkadia RING RING (from UniProt Q6ZNA4) |  |  |  |  |  |  |  | 4.49 |
